Assay [1] has as its target hMOR-1B2 (human) (UniProt P35372). The experiment in a line: competition against [3H]DAMGO (~1 nM), membranes of stable CHO transfectants.
Assay [2] deals with rMOR-1 (rat) (UniProt P33535). The experiment in a line: cell-based or functional assay.
Assay [3] has as its target rMOR-1D (rat). The experiment in a line: cell-based or functional assay.
Assay [4] has as its target rMOR-1A (rat). The experiment in a line: cell-based or functional assay.
Assay [5] deals with rMOR-1 (no Exon 4) (rat) (UniProt P33535). The experiment in a line: cell-based or functional assay.
Assay [6] addresses rMOR-1C1 (rat). The experiment in a line: cell-based or functional assay.
Assay [7] concerns the target rMOR-1 (rat) (UniProt P33535). The experiment in a line: competition against [3H]DAMGO (~1 nM), membranes of stable CHO transfectants.
In assay [8] the target is rMOR-1 (rat) (UniProt P33535). The experiment in a line: [3H]DAMGO saturation binding, membranes of stable CHO transfectants.
Assay [9] deals with rMOR-1D (rat). The assay is described as above.
Assay [10] concerns the target rMOR-1A (rat). Described as above.
Assay [11] deals with rMOR-1 (no Exon 4) (rat) (UniProt P33535). The description is as above.
Assay [12] has as its target rMOR-1C1 (rat). Described as above.
Assay [13] has as its target hMOR-1B4 (human) (UniProt P35372). The experiment in a line: cell-based or functional assay.
Assay [14] concerns the target hMOR-1Y (human) (UniProt P35372). The experiment in a line: cell-based or functional assay.
Assay [15] concerns the target hMOR-1B1 (human) (UniProt P35372). The experiment in a line: cell-based or functional assay.
The target of assay [16] is hMOR-1 (human) (UniProt P35372). The experiment in a line: cell-based or functional assay.
Assay [17] addresses hMOR-1B3 (human) (UniProt P35372). The experiment in a line: cell-based or functional assay.
Assay [18] addresses hMOR-1A (human). The experiment in a line: cell-based or functional assay.
Assay [19] deals with hMOR-1B5 (human) (UniProt P35372). The experiment in a line: cell-based or functional assay.
The target in assay [20] is hMOR-1 (exons 1-3) (human) (UniProt P35372). The experiment in a line: cell-based or functional assay.
Assay [21] addresses hMOR-1B2 (human) (UniProt P35372). The experiment in a line: cell-based or functional assay.
The target of assay [22] is rMOR-1D (rat). The experiment in a line: competition against [3H]DAMGO (~1 nM), membranes of stable CHO transfectants.
Assay [23] concerns the target rMOR-1A (rat). The description is as above.
The target in assay [24] is hMOR-1B1 (human) (UniProt P35372). The assay is described as above.
For assay [25], the target named is hMOR-1 (human) (UniProt P35372). The description is as above.
Assay [26] addresses rMOR-1C1 (rat). The assay is described as above.
The target in assay [27] is hMOR-1B4 (human) (UniProt P35372). Described as above.
Assay [28] concerns the target hMOR-1Y (human) (UniProt P35372). Described as above.
Assay [29] addresses hMOR-1B3 (human) (UniProt P35372). The description is as above.
In assay [30] the target is hMOR-1A (human). Described as above.
In assay [31] the target is hMOR-1B5 (human) (UniProt P35372). Described as above.
Assay [32] concerns the target hMOR-1 (exons 1-3) (human) (UniProt P35372). Described as above.
Assay [33] deals with rMOR-1 (no Exon 4) (rat) (UniProt P33535). The description is as above.

On to DADLE (peptide), for which the Ki (usually a measure of affinity in units of concentration, obtained from inhibition or displacement) in the assay with hMOR-1B2 (human) [1] is 0.01 µM.
As to Endomorphin 1 (peptide), the Max Stim (%) came out at 320% with rMOR-1 (rat) [2]; 145% with rMOR-1D (rat) [3]; 205% with rMOR-1A (rat) [4]; 189% with rMOR-1 (no Exon 4) (rat) [5]; 377% in the assay with rMOR-1C1 (rat) [6]. In addition, the EC50 (nM), stimulation of [35S]GTPγS binding in the assay with rMOR-1D (rat) [3] was found to be 100 nM.
In the assay with rMOR-1 (rat) [7], Endomorphin 2 (peptide) registered a Ki of 0.008 µM.
In the case of “[D-Ala^2,MePhe^4,Gly(ol)^5]enkephalin (DAMGO) (peptide)”, the Kd (usually the equilibrium constant for the complex coming apart) in the assay with rMOR-1 (rat) [8] is 0.0028 µM; in the assay with rMOR-1D (rat) [9], 0.0047 µM; with rMOR-1A (rat) [10], 0.0025 µM; in the assay with rMOR-1 (no Exon 4) (rat) [11], 0.0045 µM; with rMOR-1C1 (rat) [12] it was 0.0048 µM. Further, the EC50 (nM), stimulation of [35S]GTPγS binding is 12 nM with rMOR-1 (rat) [2]; 125 nM in the assay with rMOR-1D (rat) [3]; 13 nM in the assay with rMOR-1A (rat) [4]; 86 nM with rMOR-1 (no Exon 4) (rat) [5]; 4 nM with rMOR-1C1 (rat) [6]. Besides, the Max Stim (%) was 233% with rMOR-1 (rat) [2]; 113% with rMOR-1D (rat) [3]; 176% with rMOR-1A (rat) [4]; 196% with rMOR-1 (no Exon 4) (rat) [5]; 233% in the assay with rMOR-1C1 (rat) [6]. Also, the Max Inhib (%) came to 65% with hMOR-1B4 (human) [13]; 91% in the assay with hMOR-1Y (human) [14]; 57% with hMOR-1B1 (human) [15]; 76% with hMOR-1 (human) [16]; 73% with hMOR-1B3 (human) [17]; 82% in the assay with hMOR-1A (human) [18]. Further, the Max Inhib (%) is 83% with hMOR-1B5 (human) [19], 74% in assay [20] and 90% with hMOR-1B2 (human) [21]. Also, the Ki in the assay with rMOR-1 (rat) [7] was 0.0033 µM; in the assay with rMOR-1D (rat) [22], 0.0047 µM; with rMOR-1A (rat) [23], 0.006 µM; in the assay with hMOR-1B1 (human) [24], 0.0012 µM; with hMOR-1 (human) [25], 0.002 µM; with rMOR-1C1 (rat) [26], 0.0045 µM.
As for “[D-Pen^2, D-Pen^5]enkephalin (DPDPE) (peptide)”, the Ki in the assay with hMOR-1B4 (human) [27], in the assay with hMOR-1Y (human) [28], with hMOR-1B1 (human) [24], with hMOR-1 (human) [25], with hMOR-1B3 (human) [29] and with hMOR-1A (human) [30] was over 0.5 µM each time. Besides, the Ki (in the assay with hMOR-1B5 (human) [31]; in assay [32]; with hMOR-1B2 (human) [1]) was over 0.5 µM in each case.
On to “[D-Ser^2, Leu^5]enkephalin-Thr^6 (DSLET) (peptide)”, for which the EC50 (nM), stimulation of [35S]GTPγS binding came out at 76 nM with rMOR-1 (rat) [2]; 540 nM with rMOR-1D (rat) [3]; 127 nM with rMOR-1A (rat) [4]; 690 nM in the assay with rMOR-1 (no Exon 4) (rat) [5]; 253 nM with rMOR-1C1 (rat) [6]. In addition, the Max Stim (%) with rMOR-1 (rat) [2] stood at 251%; in the assay with rMOR-1D (rat) [3] it was 187%; with rMOR-1A (rat) [4] it was 206%; in the assay with rMOR-1 (no Exon 4) (rat) [5], 226%; with rMOR-1C1 (rat) [6], 312%. Moreover, the Ki with rMOR-1 (rat) [7] was 0.0309 µM; with hMOR-1B4 (human) [27] it was 0.0223 µM; with rMOR-1D (rat) [22], 0.0273 µM; in the assay with hMOR-1Y (human) [28], 0.0154 µM; in the assay with rMOR-1A (rat) [23], 0.0445 µM; with hMOR-1B1 (human) [24], 0.0139 µM. Also, the inhibitory constant (Ki) with hMOR-1 (human) [25] was 0.0191 µM; in the assay with hMOR-1B3 (human) [29], 0.0164 µM; with hMOR-1A (human) [30], 0.0197 µM; in the assay with rMOR-1 (no Exon 4) (rat) [33], 0.0242 µM; with rMOR-1C1 (rat) [26] it was 0.045 µM; in the assay with hMOR-1B2 (human) [1] it was 0.0344 µM.

The values above are taken from patent publication US20070258988A1.
